Test [1] has as its target Monoglycosylated IgG1-Fc (high mannose glycan at a single CH2 domain of the dimer) (human). In words: BLI. Background: BLI is a label-free optical method that tracks binding on a fibre tip over time.
Test [2] concerns the target Diglycosylated IgG1-Fc (high mannose glycans at both CH2 domains of the dimer) (human). The experiment in a line: BLI.

Drawing on paper PMC4512762, this text covers Kd for 1 substance.

Turning to “Fc γ receptor IIIA, soluble domain of the high affinity V158 polymorph”, the results for the Kd in test [1] and in test [2] were 100 nM and 32 nM, respectively.
